Where a chain is given by its changes, count along the chain named. Blank lines part the entries; values can stand above or below the molecule they belong to.
Assays:
[1] = biological target: T1, recombinant human collagen type II (h Col II) (Homo sapiens, UniProt P02458); experiment: KD-determination by ELISA vs human collagen type II; type: binding
T1 construct: purchased Chondrex CHX-20051
Protocol: High binding plates (Greiner, 781061) were immobilized with 2.5 μg/ml recombinant human collagen type II (h Col II, Chondrex, CHX-20051), rabbit collagen type II (rbCol II, prepared from rabbit eyes), porcine collagen type II (p Col II, prepared from porcine eyes), human collagen type I, (h Col I, Sigma, C5483-1MG), human collagen type V (h Col V, Abcam, ab7537), human collagen type III (h Col Ill, Abcam, ab7535) and 67B89 (domain of fibronectin, produced in E. coli) respectively over night at 4° C. ELISA-plates were washed 3 times with PBST (PBS+ 0.1% Tween) and blocked with 3% BSA/0.5% Tween/PBS 2 h at RT. After washing with PBST, dilution series of 1.1 μM to 7×10^−4 nM of dimers (CID 211999, CID 212000), dilution series of 100 nM to 7×10^−6 nM of tetramers (CID 212001 and CID 212704) and dilution series of 10 μM to 2 nM of dimer (CID 212705) were incubated on ELISA-plates 1 h at rt. Plates were washed with PBST and incubated with biotinylated anti-StrepTag-ab (Antikörper-online, ABIN1573895) with a dilution of 1:10.000 for 1 h at rt. The binding was visualized with a-rabbit-IgG-HRP (Sigma, A9169) with a dilution of 1:10.000 and as substrate TMB Plus von KEM EN TEC Diagnostic, Kat-Nr. 4395.

[2] = biological target: T2, hCol2 (human Type II collagen) (Homo sapiens, UniProt P02458); experiment: Binding analysis by SPR (Biacore 3000) vs human type II collagen; conditions: dimers or tetramers; Langmuir 1:1 model
T2 construct: purchased Chondrex
T2 sequence (P02458 182-1241): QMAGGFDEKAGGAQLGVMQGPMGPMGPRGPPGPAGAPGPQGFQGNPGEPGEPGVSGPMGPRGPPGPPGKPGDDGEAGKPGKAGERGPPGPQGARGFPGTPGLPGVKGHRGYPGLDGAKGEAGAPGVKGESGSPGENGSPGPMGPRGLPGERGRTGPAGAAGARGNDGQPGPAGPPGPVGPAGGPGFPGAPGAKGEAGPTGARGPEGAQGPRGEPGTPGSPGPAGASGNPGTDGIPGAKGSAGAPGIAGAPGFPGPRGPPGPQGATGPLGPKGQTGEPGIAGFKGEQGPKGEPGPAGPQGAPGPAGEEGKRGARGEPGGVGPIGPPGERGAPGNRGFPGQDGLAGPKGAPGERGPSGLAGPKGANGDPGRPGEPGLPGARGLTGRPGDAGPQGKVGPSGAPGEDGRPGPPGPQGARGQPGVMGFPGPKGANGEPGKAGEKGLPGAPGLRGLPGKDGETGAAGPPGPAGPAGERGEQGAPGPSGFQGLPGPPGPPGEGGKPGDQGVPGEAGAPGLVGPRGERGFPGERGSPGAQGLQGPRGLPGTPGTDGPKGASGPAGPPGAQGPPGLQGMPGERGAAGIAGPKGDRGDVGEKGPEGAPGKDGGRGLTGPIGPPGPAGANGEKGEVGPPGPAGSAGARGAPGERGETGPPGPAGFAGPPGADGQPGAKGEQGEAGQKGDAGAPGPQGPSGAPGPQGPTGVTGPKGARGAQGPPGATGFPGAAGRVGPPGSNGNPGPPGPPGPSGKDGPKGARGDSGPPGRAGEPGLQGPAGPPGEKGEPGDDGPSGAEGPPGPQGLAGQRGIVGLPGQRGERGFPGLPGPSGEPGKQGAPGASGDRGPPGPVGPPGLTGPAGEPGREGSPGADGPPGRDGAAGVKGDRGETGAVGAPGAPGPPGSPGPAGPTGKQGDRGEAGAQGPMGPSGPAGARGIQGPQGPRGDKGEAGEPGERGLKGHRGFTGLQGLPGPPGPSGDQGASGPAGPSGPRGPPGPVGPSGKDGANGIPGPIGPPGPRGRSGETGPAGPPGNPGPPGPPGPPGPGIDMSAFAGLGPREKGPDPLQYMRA
Protocol: (§1) Proteins with affinity tag were purified by affinity chromatography and size exclusion. After affinity chromatography purification using Strep-Tactin Superflow high capacity cartridges (IBA Lifesciences) a size exclusion chromatography (SEC) was performed using an Äkta system and a Superdex™ 200 HiLoad 16/600 column (Cytiva). Fused variants with Aflibercept were purified via MabSelect SuRe (Cytiva) affinity chromatography followed by a size exclusion chromatography (SEC) using an Äkta system and a Superdex™ 200 HiLoad 16/600 column (Cytiva). All chromatography processing steps were carried out on AKTA systems using matrices from Cytiva. Homogenous species of all purified ligands were obtained; no aggregation was detected. Following SOS-PAGE analysis positive fractions were pooled and their protein concentrations were measured. Further analysis included SOS-PAGE, SE-HPLC and RP-HPLC. Protein concentrations were determined by absorbance measurement at 280 nm using the molar absorbent coefficient. Reversed phase chromatography (RP-HPLC) was performed using a Dionex HPLC system and a PLRP-S (5 μm, 300 Å) column (Agilent). Analytic size exclusion chromatography (SE-HPLC) was performed using a Dionex HPLC system and a Superdex200 increase 5/150 GL (Cytiva). Binding of Collagen II was evaluated by SPR measurements using a Biacore 3000 system. Purified Collagen II was obtained from Chondrex.inc and VEGF-165 was obtained from Millipore. Targets were immobilized on a CM5-Sensor via NHS/EDC chemistry (immobilization level ˜1000 RU). Binding molecules were injected at different concentration and affinity was calculated by langmuir 1:1 binding model.
The purified proteins were immobilized on a CM-5 sensor chip (GE Healthcare) using NHS/EDC after PDEA activation resulting in 110-140 RU with a Biacore 3000 system (GE Healthcare). The chip was equilibrated with SPR running buffer (PBS 0.05% Tween pH 7.3). Upon binding, target analyte was accumulated on the surface increasing the refractive index. This change in the refractive index was measured in real time and plotted as response or resonance units versus time. The analytes were applied to the chip in serial dilutions with a flow rate of 30 μl/min. The association was performed for 120 seconds and the dissociation for 120 seconds. After each run, the chip surface was regenerated with 30 μl regeneration buffer (10 mM glycine pH 2.0) and equilibrated with running buffer.
Binding studies were carried out by the use of the BIAcore 3000 (GE Healthcare); data evaluation was operated via the BIAevaluation 3.0 software, provided by the manufacturer, using the Langmuir 1:1 model (RI=0). Evaluated dissociation constants (KD) were standardized against the immobilized protein and indicated. Shown is the change in refractive index measured in real time and plotted as response or resonance unit [RU] versus time [sec].

[3] = Soluble expression in Escherichia coli BL21(DE3); type: physicochemical; conditions: expression in E. coli BL21(DE3)
Protocol: Variants with affinity tag were expressed in Escherichia coli BL21(DE3) using a low copy plasmid system under regulation of a T7 promoter. Proteins were produced in soluble form after induction by lactose included in the medium (autoinduction medium). BL21 (DE3) competent cells were transformed with the expression plasmid, spread onto selective agar plates (kanamycin) and incubated overnight at 37° C. Precultures were inoculated from single colony in 3 ml 2×YT medium supplemented with 50 μg/ml kanamycin and cultured for 6 hours at 37° C. at 200 rpm in a conventional orbital shaker in culture tubes. […] Cultures were transferred to an orbital shaker and incubated at 30° C. and 200 rpm. Recombinant protein expression was induced by metabolizing glucose and subsequently allowing lactose to enter the cells. Cells were grown overnight for approx. 17 hours to reach a final OD600 of about 2-4. Before the harvest, the OD600 was measured, samples adjusted to 0.6/OD600 were withdrawn, pelleted and frozen at −20° C. To collect biomass cells were centrifuged at 12000×g for 15 min at 22° C. Pellets were weighed (wet weight). Cells were stored at −20° C. before processing.
as §1

T1 sequence (P02458 182-1241): as above

binding affinity (KD) to human type II collagen (ELISA) [1]: 460 nM
Affinity [SPR] vs hCol2 [2]: 169 nM
B1: CID 210987: hetero-dimeric binding protein comprising SEQ ID NO: 10 and SEQ ID NO: 6 linked head-to-tail (protein)
chain: IAAKFDEAQQAAFYEILHLPNLTEQQRNYFIQWLRDDPSVSLEVLGTAQRLNDSQAPKIAAKFDEAQQLAFYQILHLENLTEEQRNAFIQSLRDDPSVSLEVLGEAIKLNLSQAPK
modifications: Col2 binding protein (dimer) 210987
Solubility Soluble expression [3]: 80%

B2: CID 210992: heterodimer with SEQ ID NO: 10 as N-terminal monomer (protein)
chain: B1 chain with L100T, I107E, L111Y
modifications: Col2 binding protein (dimer) 210992
Solubility Soluble expression [3]: 95%

B3: CID 211027: heterodimer with SEQ ID NO: 10 as N-terminal monomer (protein)
chain: B1 chain with L100A, I107R, L111K
modifications: Col2 binding protein (dimer) 211027
Solubility Soluble expression [3]: 85%
